How the values were obtained:
SARS-CoV-2 S2蛋白 = target: T1, SARS-CoV-2 S2蛋白 (SARS-CoV-2, UniProt P0DTC2 686-1213); assay: ELISA, antibody on S2 protein
T1 construct: domain: S2

SARS-CoV-2 S1蛋白 = target: T2, SARS-CoV-2 S1蛋白 (SARS-CoV-2, UniProt P0DTC2 16-685); assay: ELISA
T2 construct: domain: S1

SARS-CoV-2 S蛋白 [1] = target: T3, SARS-CoV-2 S蛋白 (SARS-CoV-2, UniProt P0DTC2 16-1213); assay: ELISA, antibody on S protein
SARS-CoV-2 S蛋白 [2] = target: T3, SARS-CoV-2 S蛋白; assay: cell-based or functional assay

B1: 全人单克隆抗体17-2 (antibody, V domains shown)
VH: QLQLQESGPGLVKASETLSLTCTVSSGSVSSDSYYWSWIRQPPGKGLEWIGYIYYSGSTNYNPSLKSRVTMSVDTSKNQFSLKLDSVTAADTAAYYCARGPLGLYYYYMDVWGKGTTVTVSS
VL: DIQMTQSPSSLSASVGDRVTITCRASQSINNYLNWYQQKPGKAPKLLIYAASSLQSGVPSRFSGSGSGTDFALTISGLQPEDFATYYCQESNSSPFTFGPGTKVDIK
notes: also called 17-2抗体
EC50 (SARS-CoV-2 S2蛋白): 0.038 µg/mL
binding result (SARS-CoV-2 S1蛋白): no binding
EC50 (SARS-CoV-2 S蛋白 [1]): 0.034 µg/mL
假病毒中和实验 IC50 (SARS-CoV-2 S蛋白 [2]): 0.587 µg/mL
